Data from the supplement of paper PMC10065799, “High-throughput profiling of sequence recognition by tyrosine kinases and SH2 domains using bacterial peptide display” (eLife, 2023).

What was measured:
FGFR3 = FGFR3 (UniProt P22607); assay: phosphorylation enrichment, bacterial display (enrichment ratio); higher = better substrate or ligand; peptides without Tyr show the background
EPHB1 = EPHB1 (UniProt P54762); assay: as above
Fes = Fes (UniProt P07332); assay: as above
MERTK = MERTK (UniProt Q12866); assay: as above
c-Src = assay: as above
Hck = Hck (UniProt P08631); assay: as above
Jak2 = Jak2 (UniProt O60674); assay: as above
c-Abl (mouse) = assay: as above
Fer (mouse) = assay: as above
AncSZ = assay: as above
EPHB2 = EPHB2 (UniProt P29323); assay: as above
FGFR1 = FGFR1 (UniProt P11362); assay: as above
Fyn = Fyn (UniProt P06241); assay: as above
SHP2-C SH2 = assay: SH2 binding enrichment of the phosphorylated peptide, bacterial display (enrichment ratio); higher = better substrate or ligand; peptides without Tyr show the background
Grb2 SH2 = Grb2 SH2 (UniProt P62993); assay: as above
c-Src SH2 = assay: as above
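For SH2 binding enrichment of the phosphorylated peptide, bacterial display in this document: peptide library displayed on the E. coli surface as eCPX fusions, selected cells deep-sequenced, score is each peptide's frequency after selection divided by its frequency in the input.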
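For phosphorylation enrichment, bacterial display in this document: 11-residue human phosphosite peptides and single-mutation variants displayed on the E. coli surface, counted by deep sequencing, each peptide's frequency after selection divided by its frequency in the unselected input library; frequency after pTyr selection over input frequency; kinase dosed for 20-30% of maximal phosphorylation in three min.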

Sequence of MERTK (Q12866 whole entry, looked up): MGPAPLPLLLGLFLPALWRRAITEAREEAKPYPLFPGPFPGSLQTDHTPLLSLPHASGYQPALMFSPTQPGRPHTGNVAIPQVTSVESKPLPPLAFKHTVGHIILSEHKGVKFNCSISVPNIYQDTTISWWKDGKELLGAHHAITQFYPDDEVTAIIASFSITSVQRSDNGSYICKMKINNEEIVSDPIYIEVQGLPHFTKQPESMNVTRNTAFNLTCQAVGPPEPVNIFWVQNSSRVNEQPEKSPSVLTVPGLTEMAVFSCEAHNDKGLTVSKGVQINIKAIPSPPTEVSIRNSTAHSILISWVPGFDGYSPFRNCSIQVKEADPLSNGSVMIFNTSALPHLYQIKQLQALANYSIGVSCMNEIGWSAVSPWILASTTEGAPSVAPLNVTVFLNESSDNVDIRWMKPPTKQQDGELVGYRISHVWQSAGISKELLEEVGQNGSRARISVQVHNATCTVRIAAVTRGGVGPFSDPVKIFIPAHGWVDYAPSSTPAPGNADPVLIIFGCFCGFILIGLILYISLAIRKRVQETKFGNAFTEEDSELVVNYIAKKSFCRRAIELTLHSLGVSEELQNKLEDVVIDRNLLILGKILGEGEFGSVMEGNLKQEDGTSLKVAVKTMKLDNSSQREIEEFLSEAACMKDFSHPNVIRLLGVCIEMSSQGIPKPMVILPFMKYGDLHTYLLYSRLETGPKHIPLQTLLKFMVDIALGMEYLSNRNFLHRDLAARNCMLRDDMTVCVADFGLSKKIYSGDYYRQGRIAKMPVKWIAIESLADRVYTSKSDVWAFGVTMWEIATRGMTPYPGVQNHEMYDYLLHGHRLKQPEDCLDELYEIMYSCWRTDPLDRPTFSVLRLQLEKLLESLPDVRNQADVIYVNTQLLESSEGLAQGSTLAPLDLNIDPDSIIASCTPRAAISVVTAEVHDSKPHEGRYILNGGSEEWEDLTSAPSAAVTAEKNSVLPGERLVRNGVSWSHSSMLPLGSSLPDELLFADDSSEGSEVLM
Sequence of EPHB2 (P29323 whole entry, looked up): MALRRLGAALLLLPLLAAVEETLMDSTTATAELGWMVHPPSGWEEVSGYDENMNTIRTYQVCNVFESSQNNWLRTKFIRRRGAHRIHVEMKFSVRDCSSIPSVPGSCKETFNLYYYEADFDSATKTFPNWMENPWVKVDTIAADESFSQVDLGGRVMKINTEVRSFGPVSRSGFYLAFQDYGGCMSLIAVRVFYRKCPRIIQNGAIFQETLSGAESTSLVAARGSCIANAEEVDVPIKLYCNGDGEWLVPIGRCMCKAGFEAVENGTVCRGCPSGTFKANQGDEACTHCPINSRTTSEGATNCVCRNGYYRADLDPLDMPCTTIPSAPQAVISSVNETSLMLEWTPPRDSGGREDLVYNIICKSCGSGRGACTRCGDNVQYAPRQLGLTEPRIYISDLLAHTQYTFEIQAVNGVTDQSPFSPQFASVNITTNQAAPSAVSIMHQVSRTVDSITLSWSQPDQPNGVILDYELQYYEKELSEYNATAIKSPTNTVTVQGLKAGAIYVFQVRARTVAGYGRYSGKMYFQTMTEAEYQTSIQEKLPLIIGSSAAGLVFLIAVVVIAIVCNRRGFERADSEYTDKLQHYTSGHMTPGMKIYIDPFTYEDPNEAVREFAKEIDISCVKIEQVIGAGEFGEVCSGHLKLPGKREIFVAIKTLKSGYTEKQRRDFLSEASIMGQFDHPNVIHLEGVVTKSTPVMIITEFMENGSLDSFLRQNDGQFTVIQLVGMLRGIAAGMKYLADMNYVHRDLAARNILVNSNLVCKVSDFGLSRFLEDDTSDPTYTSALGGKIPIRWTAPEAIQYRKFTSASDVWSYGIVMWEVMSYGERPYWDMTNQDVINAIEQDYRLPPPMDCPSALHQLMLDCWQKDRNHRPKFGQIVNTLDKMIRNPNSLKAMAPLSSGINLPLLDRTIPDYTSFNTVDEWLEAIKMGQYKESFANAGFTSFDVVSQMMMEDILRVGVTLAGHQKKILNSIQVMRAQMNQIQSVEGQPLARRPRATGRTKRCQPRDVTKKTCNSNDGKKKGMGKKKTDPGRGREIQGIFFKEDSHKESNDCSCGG
Sequence of Fyn (P06241 whole entry, looked up): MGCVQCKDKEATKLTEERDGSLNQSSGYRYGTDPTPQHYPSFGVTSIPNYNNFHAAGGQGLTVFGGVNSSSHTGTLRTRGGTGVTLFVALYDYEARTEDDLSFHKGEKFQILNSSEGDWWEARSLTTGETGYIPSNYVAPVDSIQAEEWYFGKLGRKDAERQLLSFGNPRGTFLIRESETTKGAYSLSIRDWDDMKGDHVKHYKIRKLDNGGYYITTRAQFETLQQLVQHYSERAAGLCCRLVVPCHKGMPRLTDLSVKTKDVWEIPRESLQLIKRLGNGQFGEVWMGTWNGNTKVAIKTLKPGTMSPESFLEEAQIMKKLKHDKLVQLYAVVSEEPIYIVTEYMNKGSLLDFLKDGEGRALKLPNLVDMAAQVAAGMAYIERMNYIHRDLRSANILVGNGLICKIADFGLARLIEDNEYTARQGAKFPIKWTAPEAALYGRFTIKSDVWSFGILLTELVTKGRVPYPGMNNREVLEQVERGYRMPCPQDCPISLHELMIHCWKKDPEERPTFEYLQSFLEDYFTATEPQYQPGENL
Sequence of Fes (P07332 whole entry, looked up): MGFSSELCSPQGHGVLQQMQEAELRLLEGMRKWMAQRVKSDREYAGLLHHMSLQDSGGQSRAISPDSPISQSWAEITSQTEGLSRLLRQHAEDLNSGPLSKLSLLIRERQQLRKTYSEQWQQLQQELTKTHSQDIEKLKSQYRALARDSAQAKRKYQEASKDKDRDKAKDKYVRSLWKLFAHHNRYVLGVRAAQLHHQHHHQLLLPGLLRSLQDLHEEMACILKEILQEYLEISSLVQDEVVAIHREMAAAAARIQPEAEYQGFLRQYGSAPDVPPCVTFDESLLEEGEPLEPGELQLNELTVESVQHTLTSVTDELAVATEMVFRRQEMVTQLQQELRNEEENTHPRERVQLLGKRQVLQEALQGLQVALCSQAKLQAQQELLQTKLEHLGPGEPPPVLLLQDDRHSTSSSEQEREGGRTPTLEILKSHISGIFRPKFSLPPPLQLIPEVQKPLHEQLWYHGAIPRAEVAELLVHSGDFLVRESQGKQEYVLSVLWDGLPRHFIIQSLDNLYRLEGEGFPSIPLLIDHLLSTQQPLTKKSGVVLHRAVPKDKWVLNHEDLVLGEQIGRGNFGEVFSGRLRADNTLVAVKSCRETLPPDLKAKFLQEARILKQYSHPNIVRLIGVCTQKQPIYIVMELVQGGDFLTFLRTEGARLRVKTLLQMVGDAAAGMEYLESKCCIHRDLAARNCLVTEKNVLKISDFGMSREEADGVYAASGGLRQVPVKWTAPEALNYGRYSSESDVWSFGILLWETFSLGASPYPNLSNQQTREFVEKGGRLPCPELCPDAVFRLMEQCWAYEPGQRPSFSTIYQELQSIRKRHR
Sequence of EPHB1 (P54762 whole entry, looked up): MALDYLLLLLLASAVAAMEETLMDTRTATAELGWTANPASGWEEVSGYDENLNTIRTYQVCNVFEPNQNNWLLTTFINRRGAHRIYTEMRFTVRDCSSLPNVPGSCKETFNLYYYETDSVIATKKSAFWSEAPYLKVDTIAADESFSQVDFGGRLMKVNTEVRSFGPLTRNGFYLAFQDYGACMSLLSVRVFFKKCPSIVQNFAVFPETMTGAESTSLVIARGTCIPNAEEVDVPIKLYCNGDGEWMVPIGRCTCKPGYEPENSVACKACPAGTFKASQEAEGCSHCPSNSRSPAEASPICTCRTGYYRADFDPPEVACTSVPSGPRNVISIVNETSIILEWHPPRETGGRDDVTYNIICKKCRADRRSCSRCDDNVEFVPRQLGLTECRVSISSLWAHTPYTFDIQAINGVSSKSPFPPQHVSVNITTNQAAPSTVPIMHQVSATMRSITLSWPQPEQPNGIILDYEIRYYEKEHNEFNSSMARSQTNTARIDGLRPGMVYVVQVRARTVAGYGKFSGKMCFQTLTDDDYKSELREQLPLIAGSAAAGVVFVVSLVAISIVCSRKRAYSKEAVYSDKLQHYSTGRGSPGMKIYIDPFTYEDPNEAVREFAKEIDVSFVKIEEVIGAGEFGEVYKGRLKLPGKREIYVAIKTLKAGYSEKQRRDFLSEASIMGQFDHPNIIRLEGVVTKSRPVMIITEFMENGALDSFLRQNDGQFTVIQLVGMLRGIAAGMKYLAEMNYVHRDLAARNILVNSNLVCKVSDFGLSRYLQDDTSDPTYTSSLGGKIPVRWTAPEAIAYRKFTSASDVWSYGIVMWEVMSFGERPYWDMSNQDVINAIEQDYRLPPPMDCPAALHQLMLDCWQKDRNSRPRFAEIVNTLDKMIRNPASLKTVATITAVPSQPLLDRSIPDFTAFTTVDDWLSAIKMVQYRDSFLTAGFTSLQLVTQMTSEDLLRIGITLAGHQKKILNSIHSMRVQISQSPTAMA
Sequence of Hck (P08631 whole entry, looked up): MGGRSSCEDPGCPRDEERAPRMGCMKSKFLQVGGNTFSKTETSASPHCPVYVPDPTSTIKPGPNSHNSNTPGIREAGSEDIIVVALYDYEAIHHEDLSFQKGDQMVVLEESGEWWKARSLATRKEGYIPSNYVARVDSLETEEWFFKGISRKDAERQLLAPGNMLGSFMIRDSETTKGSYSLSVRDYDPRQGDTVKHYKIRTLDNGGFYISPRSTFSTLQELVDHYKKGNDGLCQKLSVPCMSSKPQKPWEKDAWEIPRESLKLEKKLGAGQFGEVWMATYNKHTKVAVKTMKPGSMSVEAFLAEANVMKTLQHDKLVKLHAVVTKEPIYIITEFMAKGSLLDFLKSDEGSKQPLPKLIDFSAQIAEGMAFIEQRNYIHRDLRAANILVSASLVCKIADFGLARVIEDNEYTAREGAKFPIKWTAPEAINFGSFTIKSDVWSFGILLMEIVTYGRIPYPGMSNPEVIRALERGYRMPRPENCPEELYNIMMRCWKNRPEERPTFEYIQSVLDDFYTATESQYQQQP

| SH2 binding enrichment (SHP2-C SH2) | SH2 binding enrichment (Grb2 SH2) | SH2 binding enrichment (c-Src SH2) | Sequence | phosphorylation enrichment (FGFR3) | phosphorylation enrichment (EPHB1) | phosphorylation enrichment (Fes) | phosphorylation enrichment (MERTK) | phosphorylation enrichment (c-Src) | phosphorylation enrichment (Hck) | phosphorylation enrichment (Jak2) | phosphorylation enrichment (c-Abl (mouse)) | phosphorylation enrichment (Fer (mouse)) | phosphorylation enrichment (AncSZ) | phosphorylation enrichment (EPHB2) | phosphorylation enrichment (FGFR1) | phosphorylation enrichment (Fyn) |
| --- | --- | --- | --- | --- | --- | --- | --- | --- | --- | --- | --- | --- | --- | --- | --- | --- |
| 1.24 | 5.58 | 0.735 | CKQGKYLNWDA [ATM_Y54_S49C] | 0.632 | 0.552 | 0.839 | 0.39 | 0.366 | 0.423 | 0.782 | 0.605 | 0.397 | 0.921 | 0.494 | 0.447 | 0.418 |
| 0.677 | 0.575 | 0.375 | GNKENYGLPQP [BUB1_Y538] | 0.609 | 0.489 | 0.69 | 0.341 | 0.392 | 0.342 | 0.532 | 1.26 | 0.353 | 0.634 | 0.533 | 0.372 | 0.321 |
| 0.363 | 0.613 | 0.426 | PPTYRYERGSR [INPPL1_Y663] | 0.419 | 0.302 | 0.616 | 0.465 | 0.39 | 0.533 | 0.286 | 0.61 | 0.22 | 0.509 | 0.442 | 0.56 | 0.449 |
| 1.02 | 1.23 | 1.08 | FGMQLYQKFMH [GRB14_Y347_N349K_YF] | 0.784 | 1.39 | 1 | 2.11 | 2.26 | 2.16 | 0.94 | 0.773 | 1.92 | 0.863 | 0.8 | 0.454 | 1.56 |
| 1.5 | 1.59 | 1.3 | YMRGMYFRMKD [PLA2G6_Y541] | 0.589 | 0.42 | 0.947 | 0.439 | 0.384 | 0.44 | 1.16 | 0.657 | 0.423 | 0.924 | 0.523 | 0.462 | 0.416 |
| 0.532 | 0.829 | 0.415 | SVVVPYEPREV [TP53_Y220_P223R] | 0.597 | 0.53 | 0.998 | 0.373 | 0.472 | 0.453 | 0.746 | 0.656 | 0.465 | 0.813 | 0.506 | 0.527 | 0.473 |
| 0.699 | 0.858 | 2.79 | AQAERYDDMAA [YWHAG_Y20_E15A] | 0.67 | 0.577 | 0.881 | 0.389 | 0.439 | 0.476 | 0.954 | 0.668 | 0.529 | 0.871 | 0.595 | 0.469 | 0.478 |
| 1.08 | 0.897 | 0.617 | ADRTRYSAFGG [RBM4_Y361_A359T] | 0.44 | 0.345 | 0.797 | 0.382 | 0.399 | 0.37 | 0.551 | 0.495 | 0.4 | 0.599 | 0.356 | 0.391 | 0.413 |
| 0.799 | 0.833 | 0.634 | ADYPDCKYRPR [SOX11_Y116_Y116C] | 0.626 | 0.496 | 0.955 | 0.41 | 0.406 | 0.416 | 0.657 | 0.706 | 0.426 | 0.733 | 0.51 | 0.606 | 0.427 |
| 0.809 | 0.868 | 0.624 | TLPAFYMGNFS [GLB1_Y552] | 0.728 | 0.645 | 1.02 | 0.538 | 0.523 | 0.565 | 1.03 | 0.661 | 0.625 | 0.998 | 0.619 | 0.543 | 0.627 |
| 0.784 | 1.09 | 0.677 | NTGGFYDLFGG [PTPN11_Y63_D61G_YF] | 0.719 | 0.829 | 1.18 | 9.2 | 4.17 | 5.68 | 1.1 | 0.836 | 3.82 | 1.05 | 0.899 | 0.478 | 7.59 |
| 0.813 | 0.958 | 0.607 | QKINKYLTVPA [SLC9A1_Y683_N682K] | 0.854 | 0.282 | 0.625 | 0.52 | 0.762 | 0.356 | 0.588 | 0.462 | 0.567 | 1.77 | 0.67 | 0.659 | 0.461 |
| 1.36 | 1.64 | 1.53 | TYVVLYDAELT [ERCC4_Y581_R576T] | 1.52 | 4.46 | 1.16 | 2.56 | 0.795 | 0.891 | 1.05 | 0.67 | 0.515 | 1.37 | 2.67 | 1.79 | 0.87 |
| 1.13 | 0.776 | 0.642 | IRSGIYFKPES [L2HGDH_Y102_H98R_YF] | 0.625 | 0.63 | 0.95 | 4.3 | 0.673 | 0.786 | 1.19 | 2.88 | 0.467 | 0.913 | 0.687 | 0.542 | 0.768 |
| 0.959 | 0.811 | 5.33 | LTFHMYADPNI [SOS1_Y618_F623I_YF] | 2.09 | 1.77 | 2.48 | 0.583 | 0.564 | 0.799 | 2.23 | 1.57 | 1.25 | 2.46 | 2.05 | 1.35 | 0.747 |
| 1.04 | 0.951 | 0.591 | LEITWYPFDME [RIPOR2_Y316_V320M] | 1.48 | 1.21 | 2.31 | 0.608 | 0.554 | 0.66 | 2.05 | 1.32 | 0.751 | 1.85 | 0.792 | 0.698 | 0.594 |
| 0.734 | 0.8 | 0.543 | DEDFLCREELA [POR_Y575_Y575C_YF] | 0.846 | 0.701 | 1.38 | 0.501 | 0.613 | 0.629 | 1.33 | 0.821 | 0.486 | 1.25 | 0.657 | 0.572 | 0.528 |

| SH2 binding enrichment (SHP2-C SH2) | SH2 binding enrichment (Grb2 SH2) | SH2 binding enrichment (c-Src SH2) | Sequence | phosphorylation enrichment (FGFR3) | phosphorylation enrichment (EPHB1) | phosphorylation enrichment (Fes) | phosphorylation enrichment (MERTK) | phosphorylation enrichment (c-Src) | phosphorylation enrichment (Hck) | phosphorylation enrichment (Jak2) | phosphorylation enrichment (c-Abl (mouse)) | phosphorylation enrichment (Fer (mouse)) | phosphorylation enrichment (AncSZ) | phosphorylation enrichment (EPHB2) | phosphorylation enrichment (FGFR1) | phosphorylation enrichment (Fyn) |
| --- | --- | --- | --- | --- | --- | --- | --- | --- | --- | --- | --- | --- | --- | --- | --- | --- |
| 0.758 | 0.772 | 0.86 | EQKRFYNAMKK [SCN5A_Y1495_K1493R_YF] | 0.415 | 0.562 | 0.711 | 0.387 | 0.441 | 0.342 | 0.562 | 0.698 | 0.35 | 0.69 | 0.309 | 0.369 | 0.363 |
| 0.363 | 0.597 | 0.573 | FRARAYSFRGP [CHGA_Y381_G382S] | 0.534 | 0.48 | 0.591 | 0.601 | 0.507 | 0.455 | 0.628 | 0.573 | 0.456 | 0.697 | 0.419 | 0.538 | 0.418 |
| 0.734 | 0.767 | 0.554 | EDDIIYTQDFT [STK11_Y362] | 0.821 | 0.869 | 1.37 | 0.631 | 1.11 | 0.742 | 1.29 | 0.957 | 0.655 | 1.41 | 0.647 | 0.652 | 0.796 |
| 0.968 | 1.08 | 0.581 | DPGVSYCTREE [PDHA1_Y301_R302C] | 1.12 | 0.643 | 1.12 | 0.451 | 0.449 | 0.688 | 1.1 | 0.714 | 0.481 | 1.12 | 0.749 | 0.576 | 0.606 |
| 0.51 | 0.645 | 0.418 | SDVCMYRKNIY [SYNE2_Y570] | 0.681 | 0.618 | 1.08 | 0.419 | 0.424 | 0.51 | 0.875 | 0.685 | 0.491 | 1.12 | 0.541 | 0.502 | 0.416 |
| 1.73 | 1.45 | 0.43 | HHTDEYEFDEL [TGM1_Y134_YF] | 0.852 | 0.909 | 1.3 | 0.445 | 0.745 | 0.697 | 1.09 | 0.96 | 0.622 | 1.38 | 0.936 | 1.07 | 0.725 |
| 1.18 | 2.06 | 0.765 | LDYNEYFRYLN [HPRT1_Y198_D201Y] | 2.1 | 0.858 | 1.23 | 0.573 | 2.04 | 1.41 | 7.21 | 1.81 | 0.635 | 1.79 | 1.39 | 3.33 | 1.45 |
| 0.661 | 0.991 | 0.509 | TQIGQYGNGLK [MORC2_Y100] | 0.345 | 0.29 | 0.432 | 0.316 | 0.272 | 0.421 | 0.358 | 0.339 | 0.387 | 0.475 | 0.258 | 0.434 | 0.352 |
| 0.636 | 0.694 | 0.399 | SENYTYIWWLN [PSG4_Y271_K267E] | 1.82 | 1.53 | 1.33 | 0.605 | 0.362 | 0.485 | 1.27 | 0.829 | 0.694 | 1.27 | 1.24 | 1.67 | 0.403 |
| 1.06 | 1.01 | 2.42 | CTTIHYNSMCN [TP53_Y234_Y236S] | 0.627 | 0.514 | 0.905 | 0.42 | 0.396 | 0.561 | 0.603 | 0.544 | 0.467 | 0.849 | 0.645 | 0.486 | 0.464 |
| 0.725 | 0.794 | 0.461 | RGESFYQDRMN [RARS_Y338] | 0.512 | 0.463 | 0.996 | 0.469 | 0.541 | 0.631 | 0.899 | 0.726 | 0.603 | 0.746 | 0.392 | 0.534 | 0.411 |
| 0.817 | 0.834 | 0.647 | PARLEYFENEK [IRS1_Y46_YF] | 0.957 | 0.714 | 1.61 | 0.784 | 0.684 | 0.709 | 2 | 0.999 | 0.661 | 1.35 | 0.777 | 1.03 | 0.471 |
| 0.494 | 0.822 | 2.02 | YTDPYYDYEIE [ZC3H18_Y372_A368T] | 7.56 | 1.39 | 1.27 | 1.31 | 2.94 | 0.967 | 1.31 | 0.871 | 1.22 | 2.13 | 1.06 | 9.65 | 1.96 |
| 0.673 | 0.859 | 0.504 | SSSPTYPDLPF [GLI3_Y168] | 0.627 | 0.634 | 0.933 | 0.654 | 0.565 | 0.59 | 0.91 | 0.967 | 0.745 | 0.839 | 0.543 | 0.784 | 0.568 |
| 0.606 | 0.914 | 0.464 | HTLIKYTDGDQ [PUS7L_Y94] | 1.14 | 0.819 | 1.76 | 1.16 | 1.09 | 1.01 | 1.75 | 1.35 | 0.64 | 1.41 | 0.982 | 1.33 | 1.89 |
| 0.827 | 0.96 | 0.65 | AEQDCYHGAIP [FER_Y461_W460C] | 0.599 | 0.648 | 1.01 | 0.453 | 0.599 | 0.499 | 0.742 | 0.706 | 0.456 | 0.864 | 0.655 | 0.523 | 0.472 |
